Laboratory results from paper PMC7644609 (Proteins, 2020).

Target: the molecule itself
Test: crystal structure

B1: dCaprin fragment (residues 187-309), dimerization domain of Drosophila melanogaster Caprin (domain or fragment)
chain: GPSSPSRKDNLAKTIAETAKIREVLIIQNVLNCFNDDQVRSDFLNGENGAKKLENTELELLEKFFIETQTRRPETADDVSFIATAQKSAELFYSTINARPKSFGEVSFEKLRSLFQQIQDSGYLDKYYL
modifications: Se-Met labelled (L-seleno-methionine in place of methionine) in the crystal used for the structure
**Q.** For B1, which “stoichiometry N” value is on record?
**A.** 2
